This note sets out measurements from IntAct's records for PubMed 31515488.

The labels stand for the following.
B1: Cytosolic 5'-nucleotidase 1A (Homo sapiens), Q9BXI3 (parent)
chain: MEPGQPREPQEPREPGPGAETAAAPVWEEAKIFYDNLAPKKKPKSPKPQNAVTIAVSSRALFRMDEEQQIYTEQGVEEYVRYQLEHENEPFSPGPAFPFVKALEAVNRRLRELYPDSEDVFDIVLMTNNHAQVGVRLINSINHYDLFIERFCMTGGNSPICYLKAYHTNLYLSADAEKVREAIDEGIAAATIFSPSRDVVVSQSQLRVAFDGDAVLFSDESERIVKAHGLDRFFEHEKAHENKPLAQGPLKGFLEALGRLQKKFYSKGLRLECPIRTYLVTARSAASSGARALKTLRSWGLETDEALFLAGAPKGPLLEKIRPHIFFDDQMFHVAGAQEMGTVAAHVPYGVAQTPRRTAPAKQAPSAQ
B2: Nuclear receptor-interacting protein 1 (Homo sapiens), P48552 (parent)
chain: MTHGEELGSDVHQDSIVLTYLEGLLMHQAAGGSGTAVDKKSAGHNEEDQNFNISGSAFPTCQSNGPVLNTHTYQGSGMLHLKKARLLQSSEDWNAAKRKRLSDSIMNLNVKKEALLAGMVDSVPKGKQDSTLLASLLQSFSSRLQTVALSQQIRQSLKEQGYALSHDSLKVEKDLRCYGVASSHLKTLLKKSKVKDQKPDTNLPDVTKNLIRDRFAESPHHVGQSGTKVMSEPLSCAARLQAVASMVEKRASPATSPKPSVACSQLALLLSSEAHLQQYSREHALKTQNANQAASERLAAMARLQENGQKDVGSYQLPKGMSSHLNGQARTSSSKLMASKSSATVFQNPMGIIPSSPKNAGYKNSLERNNIKQAANNSLLLHLLKSQTIPKPMNGHSHSERGSIFEESSTPTTIDEYSDNNPSFTDDSSGDESSYSNCVPIDLSCKHRTEKSESDQPVSLDNFTQSLLNTWDPKVPDVDIKEDQDTSKNSKLNSHQKVTLLQLLLGHKNEENVEKNTSPQGVHNDVSKFNTQNYARTSVIESPSTNRTTPVSTPPLLTSSKAGSPINLSQHSLVIKWNSPPYVCSTQSEKLTNTASNHSMDLTKSKDPPGEKPAQNEGAQNSATFSASKLLQNLAQCGMQSSMSVEEQRPSKQLLTGNTDKPIGMIDRLNSPLLSNKTNAVEENKAFSSQPTGPEPGLSGSEIENLLERRTVLQLLLGNPNKGKSEKKEKTPLRDESTQEHSERALSEQILMVKIKSEPCDDLQIPNTNVHLSHDAKSAPFLGMAPAVQRSAPALPVSEDFKSEPVSPQDFSFSKNGLLSRLLRQNQDSYLADDSDRSHRNNEMALLESKNLCMVPKKRKLYTEPLENPFKKMKNNIVDAANNHSAPEVLYGSLLNQEELKFSRNDLEFKYPAGHGSASESEHRSWARESKSFNVLKQLLLSENCVRDLSPHRSNSVADSKKKGHKNNVTNSKPEFSISSLNGLMYSSTQPSSCMDNRTFSYPGVVKTPVSPTFPEHLGCAGSRPESGLLNGCSMPSEKGPIKWVITDAEKNEYEKDSPRLTKTNPILYYMLQKGGNSVTSRETQDKDIWREASSAESVSQVTAKEELLPTAETKASFFNLRSPYNSHMGNNASRPHSANGEVYGLLGSVLTIKKESE
partner: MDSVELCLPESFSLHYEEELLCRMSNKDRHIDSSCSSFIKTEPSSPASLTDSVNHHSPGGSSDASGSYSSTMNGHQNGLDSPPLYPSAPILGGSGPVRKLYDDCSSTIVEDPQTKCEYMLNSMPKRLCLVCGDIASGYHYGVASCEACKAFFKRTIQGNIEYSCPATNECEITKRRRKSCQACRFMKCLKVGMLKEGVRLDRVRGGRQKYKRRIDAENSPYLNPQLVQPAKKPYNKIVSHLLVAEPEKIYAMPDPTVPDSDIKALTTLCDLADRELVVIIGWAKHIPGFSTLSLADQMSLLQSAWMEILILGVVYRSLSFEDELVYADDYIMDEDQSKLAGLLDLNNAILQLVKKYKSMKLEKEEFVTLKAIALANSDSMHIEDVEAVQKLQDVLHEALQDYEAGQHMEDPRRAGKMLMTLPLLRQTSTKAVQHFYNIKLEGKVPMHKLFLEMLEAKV
B3: Cysteine-rich C-terminal protein 1 (Homo sapiens), Q9UGL9 (parent)
chain: MSSQQSAVSAKGFSKGSSQGPAPCPAPAPTPAPASSSSCCGSGRGCCGDSGCCGSSSTSCCCFPRRRRRQRSSGCCCCGGGSQRSQRSNNRSSGCCSGC
B4: Centrin-1 (Homo sapiens), Q12798 (parent)
chain: MASGFKKPSAASTGQKRKVAPKPELTEDQKQEVREAFDLFDVDGSGTIDAKELKVAMRALGFEPRKEEMKKMISEVDREGTGKISFNDFLAVMTQKMSEKDTKEEILKAFRLFDDDETGKISFKNLKRVANELGENLTDEELQEMIDEADRDGDGEVNEEEFLRIMKKTSLY
partner: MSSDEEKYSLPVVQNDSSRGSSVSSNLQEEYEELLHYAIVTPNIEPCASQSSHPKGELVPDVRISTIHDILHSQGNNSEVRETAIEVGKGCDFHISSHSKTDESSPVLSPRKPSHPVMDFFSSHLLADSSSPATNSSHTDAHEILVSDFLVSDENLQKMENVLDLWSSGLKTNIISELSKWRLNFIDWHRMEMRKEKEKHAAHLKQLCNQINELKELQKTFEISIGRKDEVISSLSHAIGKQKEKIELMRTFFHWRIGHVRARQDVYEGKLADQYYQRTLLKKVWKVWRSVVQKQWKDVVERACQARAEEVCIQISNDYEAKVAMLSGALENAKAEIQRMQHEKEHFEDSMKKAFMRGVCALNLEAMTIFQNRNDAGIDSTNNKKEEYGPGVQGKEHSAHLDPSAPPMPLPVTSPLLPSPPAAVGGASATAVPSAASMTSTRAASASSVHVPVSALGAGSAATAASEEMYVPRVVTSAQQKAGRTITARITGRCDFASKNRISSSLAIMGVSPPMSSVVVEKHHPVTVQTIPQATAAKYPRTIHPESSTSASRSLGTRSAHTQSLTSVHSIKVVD
B5: Four and a half LIM domains protein 2 (Homo sapiens), Q14192 (parent)
chain: MTERFDCHHCNESLFGKKYILREESPYCVVCFETLFANTCEECGKPIGCDCKDLSYKDRHWHEACFHCSQCRNSLVDKPFAAKEDQLLCTDCYSNEYSSKCQECKKTIMPGTRKMEYKGSSWHETCFICHRCQQPIGTKSFIPKDNQNFCVPCYEKQHAMQCVQCKKPITTGGVTYREQPWHKECFVCTACRKQLSGQRFTARDDFAYCLNCFCDLYAKKCAGCTNPISGLGGTKYISFEERQWHNDCFNCKKCSLSLVGRGFLTERDDILCPDCGKDI
partner: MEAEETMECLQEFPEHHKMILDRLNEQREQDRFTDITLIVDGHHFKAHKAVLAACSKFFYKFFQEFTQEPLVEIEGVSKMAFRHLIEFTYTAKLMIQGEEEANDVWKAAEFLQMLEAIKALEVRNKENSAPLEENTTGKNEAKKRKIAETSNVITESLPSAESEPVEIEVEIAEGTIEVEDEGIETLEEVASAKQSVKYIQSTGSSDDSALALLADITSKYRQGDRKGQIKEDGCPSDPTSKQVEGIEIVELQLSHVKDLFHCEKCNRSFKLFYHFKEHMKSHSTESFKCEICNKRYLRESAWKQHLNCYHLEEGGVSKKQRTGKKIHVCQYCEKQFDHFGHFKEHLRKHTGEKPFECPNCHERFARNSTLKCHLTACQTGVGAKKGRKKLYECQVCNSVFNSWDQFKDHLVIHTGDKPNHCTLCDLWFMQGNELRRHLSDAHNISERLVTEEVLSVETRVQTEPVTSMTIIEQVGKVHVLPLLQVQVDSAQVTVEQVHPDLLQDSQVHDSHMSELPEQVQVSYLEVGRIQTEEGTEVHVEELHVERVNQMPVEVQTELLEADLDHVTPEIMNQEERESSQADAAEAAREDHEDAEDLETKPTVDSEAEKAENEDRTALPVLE

Variants of B1 are the subject of one test. The following applies: with ntaq1_human NTAQ1, Q96HA8.
For MEPGQPREPQEPREPGPGAETAAAPVWEEAKIFCDNLAPKKKPKSPKPQNAVTIAVSSRALFRMDEEQQIYTEQGVEEYVRYQLEHENEPFSPGPAFPFVKALEAVNRRLRELYPDSEDVFDIVLMTNNHAQVGVRLINSINHYDLFIERFCMTGGNSPICYLKAYHTNLYLSADAEKVREAIDEGIAAATIFSPSRDVVVSQSQLRVAFDGDAVLFSDESERIVKAHGLDRFFEHEKAHENKPLAQGPLKGFLEALGRLQKKFYSKGLRLECPIRTYLVTARSAASSGARALKTLRSWGLETDEALFLAGAPKGPLLEKIRPHIFFDDQMFHVAGAQEMGTVAAHVPYGVAQTPRRTAPAKQAPSAQ [Y34C], the “effect of a mutation on the interaction” value is reported as “with no effect”.

A further test covers variants of B2. The following applies: with err3_human ESRRG.
On to K385I, for which the “effect of a mutation on the interaction” value is listed as “with no effect”.

The next test covers variants of B3. The following applies: with nt2na_human NOTCH2NLA.
As to MSSQQSAVSAKGFSKGSSQSPAPCPAPAPTPAPASSSSCCGSGRGCCGDSGCCGSSSTSCCCFPRRRRRQRSSGCCCCGGGSQRSQRSNNRSSGCCSGC, the “effect of a mutation on the interaction” value is reported as “with no effect”.

The variants in another test derive from B4. The following applies: with poc5_human POC5, Q8NA72.
With M72T, the “effect of a mutation on the interaction” value is listed as “with no effect”.

Another test covers variants of B5. The following applies: with zn131_human ZNF131, P52739.
Turning to MTERFDCHHCNESLFGKKYILREESPYCVVCFETLFANTCEECGKPIGCDCKDLSYKDRHWHEACFHCSQCRNSLVDKPFAAKEDQLLCTDCYSKEYSSKCQECKKTIMPGTRKMEYKGSSWHETCFICHRCQQPIGTKSFIPKDNQNFCVPCYEKQHAMQCVQCKKPITTGGVTYREQPWHKECFVCTACRKQLSGQRFTARDDFAYCLNCFCDLYAKKCAGCTNPISGLGGTKYISFEERQWHNDCFNCKKCSLSLVGRGFLTERDDILCPDCGKDI [N95K], the “effect of a mutation on the interaction” value is given as “with no effect”.
Still for that read-out and setting: the same measure for MTERFDCHHCNESLFGKKYILREESPYCVVCFETLFSNTCEECGKPIGCDCKDLSYKDRHWHEACFHCSQCRNSLVDKPFAAKEDQLLCTDCYSNEYSSKCQECKKTIMPGTRKMEYKGSSWHETCFICHRCQQPIGTKSFIPKDNQNFCVPCYEKQHAMQCVQCKKPITTGGVTYREQPWHKECFVCTACRKQLSGQRFTARDDFAYCLNCFCDLYAKKCAGCTNPISGLGGTKYISFEERQWHNDCFNCKKCSLSLVGRGFLTERDDILCPDCGKDI [A37S]: “with no effect”.
